Results on 33 molecules are retold here after PMC12416549 (2024).

The target in the assay is T1, TNFR1 (Homo sapiens, UniProt P19438).
T1 chain: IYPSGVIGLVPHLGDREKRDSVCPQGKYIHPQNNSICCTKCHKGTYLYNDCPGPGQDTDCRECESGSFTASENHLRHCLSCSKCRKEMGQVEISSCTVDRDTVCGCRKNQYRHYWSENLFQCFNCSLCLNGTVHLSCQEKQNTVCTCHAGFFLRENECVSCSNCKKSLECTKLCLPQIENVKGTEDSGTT
Nature of the assay: yeast display SC50.

B1: K27D (designed binder)
chain: SMEEEVEKAAKEYEKKKKEAIEKHLEDLKAKDKEAAERFLKELEEAAKEYAKDEAKTMSEEEAKRRAKKYKEKVLLSELSEEEQKEIKEAEEKLVRTILKYVEEAAK
As to B1, the “apparent Kd (screen)” value was determined as 0.956 nM.

B2: A46Y (designed binder)
chain: SMEEEVEKAAKEYEKKKKEAIEKHLEKLKAKDKEAAERFLKELEEYAKEYAKDEAKTMSEEEAKRRAKKYKEKVLLSELSEEEQKEIKEAEEKLVRTILKYVEEAAK
Turning to B2, the “apparent Kd (screen)” value stood at 0.49 nM.

B3: E89S (designed binder)
chain: SMEEEVEKAAKEYEKKKKEAIEKHLEKLKAKDKEAAERFLKELEEAAKEYAKDEAKTMSEEEAKRRAKKYKEKVLLSELSEEEQKEIKSAEEKLVRTILKYVEEAAK
In the case of B3, the “apparent Kd (screen)” value worked out at 0.49 nM.

B4: R38E (designed binder)
chain: SMEEEVEKAAKEYEKKKKEAIEKHLEKLKAKDKEAAEEFLKELEEAAKEYAKDEAKTMSEEEAKRRAKKYKEKVLLSELSEEEQKEIKEAEEKLVRTILKYVEEAAK
On to B4, for which the “apparent Kd (screen)” value stood at 2.73 nM.

B5: K23V (designed binder)
chain: SMEEEVEKAAKEYEKKKKEAIEVHLEKLKAKDKEAAERFLKELEEAAKEYAKDEAKTMSEEEAKRRAKKYKEKVLLSELSEEEQKEIKEAEEKLVRTILKYVEEAAK
In the case of B5, the “apparent Kd (screen)” value worked out at 0.869 nM.

B6: F39N (designed binder)
chain: SMEEEVEKAAKEYEKKKKEAIEKHLEKLKAKDKEAAERNLKELEEAAKEYAKDEAKTMSEEEAKRRAKKYKEKVLLSELSEEEQKEIKEAEEKLVRTILKYVEEAAK
As to B6, the “apparent Kd (screen)” value came to 3.3 nM.

B7: E103V (designed binder)
chain: SMEEEVEKAAKEYEKKKKEAIEKHLEKLKAKDKEAAERFLKELEEAAKEYAKDEAKTMSEEEAKRRAKKYKEKVLLSELSEEEQKEIKEAEEKLVRTILKYVVEAAK
With B7, the “apparent Kd (screen)” value is 0.539 nM.

B8: K17Q (designed binder)
chain: SMEEEVEKAAKEYEKKQKEAIEKHLEKLKAKDKEAAERFLKELEEAAKEYAKDEAKTMSEEEAKRRAKKYKEKVLLSELSEEEQKEIKEAEEKLVRTILKYVEEAAK
Turning to B8, the “apparent Kd (screen)” value was 1.16 nM.

B9: L25E (designed binder)
chain: SMEEEVEKAAKEYEKKKKEAIEKHEEKLKAKDKEAAERFLKELEEAAKEYAKDEAKTMSEEEAKRRAKKYKEKVLLSELSEEEQKEIKEAEEKLVRTILKYVEEAAK
Consider B9, for which the “apparent Kd (screen)” value was 2.73 nM.

B10: Y101G (designed binder)
chain: SMEEEVEKAAKEYEKKKKEAIEKHLEKLKAKDKEAAERFLKELEEAAKEYAKDEAKTMSEEEAKRRAKKYKEKVLLSELSEEEQKEIKEAEEKLVRTILKGVEEAAK
For the molecule B10, the “apparent Kd (screen)” value stood at 0.446 nM.

B11: L43K (designed binder)
chain: SMEEEVEKAAKEYEKKKKEAIEKHLEKLKAKDKEAAERFLKEKEEAAKEYAKDEAKTMSEEEAKRRAKKYKEKVLLSELSEEEQKEIKEAEEKLVRTILKYVEEAAK
As for B11, the “apparent Kd (screen)” value was 0.869 nM.

B12: K31I (designed binder)
chain: SMEEEVEKAAKEYEKKKKEAIEKHLEKLKAIDKEAAERFLKELEEAAKEYAKDEAKTMSEEEAKRRAKKYKEKVLLSELSEEEQKEIKEAEEKLVRTILKYVEEAAK
As for B12, the “apparent Kd (screen)” value was 0.869 nM.

B13: S77R (designed binder)
chain: SMEEEVEKAAKEYEKKKKEAIEKHLEKLKAKDKEAAERFLKELEEAAKEYAKDEAKTMSEEEAKRRAKKYKEKVLLRELSEEEQKEIKEAEEKLVRTILKYVEEAAK
For the molecule B13, the “apparent Kd (screen)” value was determined as 1.86 nM.

B14: K68M (designed binder)
chain: SMEEEVEKAAKEYEKKKKEAIEKHLEKLKAKDKEAAERFLKELEEAAKEYAKDEAKTMSEEEAKRRAMKYKEKVLLSELSEEEQKEIKEAEEKLVRTILKYVEEAAK
As for B14, the “apparent Kd (screen)” value turned out to be 1.27 nM.

B15: Q84F (designed binder)
chain: SMEEEVEKAAKEYEKKKKEAIEKHLEKLKAKDKEAAERFLKELEEAAKEYAKDEAKTMSEEEAKRRAKKYKEKVLLSELSEEEFKEIKEAEEKLVRTILKYVEEAAK
Regarding B15, the “apparent Kd (screen)” value is 5.84 nM.

B16: E22V (designed binder)
chain: SMEEEVEKAAKEYEKKKKEAIVKHLEKLKAKDKEAAERFLKELEEAAKEYAKDEAKTMSEEEAKRRAKKYKEKVLLSELSEEEQKEIKEAEEKLVRTILKYVEEAAK
In the case of B16, the “apparent Kd (screen)” value was determined as 1.16 nM.

B17: D53K (designed binder)
chain: SMEEEVEKAAKEYEKKKKEAIEKHLEKLKAKDKEAAERFLKELEEAAKEYAKKEAKTMSEEEAKRRAKKYKEKVLLSELSEEEQKEIKEAEEKLVRTILKYVEEAAK
Turning to B17, the “apparent Kd (screen)” value was found to be 0.208 nM.

B18: K18N (designed binder)
chain: SMEEEVEKAAKEYEKKKNEAIEKHLEKLKAKDKEAAERFLKELEEAAKEYAKDEAKTMSEEEAKRRAKKYKEKVLLSELSEEEQKEIKEAEEKLVRTILKYVEEAAK
Consider B18, for which the “apparent Kd (screen)” value came to 0.539 nM.

B19: K69W (designed binder)
chain: SMEEEVEKAAKEYEKKKKEAIEKHLEKLKAKDKEAAERFLKELEEAAKEYAKDEAKTMSEEEAKRRAKWYKEKVLLSELSEEEQKEIKEAEEKLVRTILKYVEEAAK
B19: the “apparent Kd (screen)” value is 11.4 nM.

B20: K69L (designed binder)
chain: SMEEEVEKAAKEYEKKKKEAIEKHLEKLKAKDKEAAERFLKELEEAAKEYAKDEAKTMSEEEAKRRAKLYKEKVLLSELSEEEQKEIKEAEEKLVRTILKYVEEAAK
B20: the “apparent Kd (screen)” value came out at 0.446 nM.

B21: E89G (designed binder)
chain: SMEEEVEKAAKEYEKKKKEAIEKHLEKLKAKDKEAAERFLKELEEAAKEYAKDEAKTMSEEEAKRRAKKYKEKVLLSELSEEEQKEIKGAEEKLVRTILKYVEEAAK
As for B21, the “apparent Kd (screen)” value was 1.4 nM.

B22: E62P (designed binder)
chain: SMEEEVEKAAKEYEKKKKEAIEKHLEKLKAKDKEAAERFLKELEEAAKEYAKDEAKTMSEEPAKRRAKKYKEKVLLSELSEEEQKEIKEAEEKLVRTILKYVEEAAK
Take B22: the “apparent Kd (screen)” value turned out to be 15.2 nM.

B23: K8P (designed binder)
chain: SMEEEVEPAAKEYEKKKKEAIEKHLEKLKAKDKEAAERFLKELEEAAKEYAKDEAKTMSEEEAKRRAKKYKEKVLLSELSEEEQKEIKEAEEKLVRTILKYVEEAAK
For B23, the “apparent Kd (screen)” value is 3.63 nM.

B24: A36T (designed binder)
chain: SMEEEVEKAAKEYEKKKKEAIEKHLEKLKAKDKEATERFLKELEEAAKEYAKDEAKTMSEEEAKRRAKKYKEKVLLSELSEEEQKEIKEAEEKLVRTILKYVEEAAK
As for B24, the “apparent Kd (screen)” value is 1.69 nM.

B25: L28E (designed binder)
chain: SMEEEVEKAAKEYEKKKKEAIEKHLEKEKAKDKEAAERFLKELEEAAKEYAKDEAKTMSEEEAKRRAKKYKEKVLLSELSEEEQKEIKEAEEKLVRTILKYVEEAAK
Take B25: the “apparent Kd (screen)” value worked out at 0.539 nM.

B26: K100S (designed binder)
chain: SMEEEVEKAAKEYEKKKKEAIEKHLEKLKAKDKEAAERFLKELEEAAKEYAKDEAKTMSEEEAKRRAKKYKEKVLLSELSEEEQKEIKEAEEKLVRTILSYVEEAAK
With B26, the “apparent Kd (screen)” value came to 0.653 nM.

B27: E34H (designed binder)
chain: SMEEEVEKAAKEYEKKKKEAIEKHLEKLKAKDKHAAERFLKELEEAAKEYAKDEAKTMSEEEAKRRAKKYKEKVLLSELSEEEQKEIKEAEEKLVRTILKYVEEAAK
Take B27: the “apparent Kd (screen)” value was 0.446 nM.

B28: Y70M (designed binder)
chain: SMEEEVEKAAKEYEKKKKEAIEKHLEKLKAKDKEAAERFLKELEEAAKEYAKDEAKTMSEEEAKRRAKKMKEKVLLSELSEEEQKEIKEAEEKLVRTILKYVEEAAK
With B28, the “apparent Kd (screen)” value came out at 6.43 nM.

B29: K107G (designed binder)
chain: SMEEEVEKAAKEYEKKKKEAIEKHLEKLKAKDKEAAERFLKELEEAAKEYAKDEAKTMSEEEAKRRAKKYKEKVLLSELSEEEQKEIKEAEEKLVRTILKYVEEAAG
Consider B29, for which the “apparent Kd (screen)” value is 1.05 nM.

B30: K85Q (designed binder)
chain: SMEEEVEKAAKEYEKKKKEAIEKHLEKLKAKDKEAAERFLKELEEAAKEYAKDEAKTMSEEEAKRRAKKYKEKVLLSELSEEEQQEIKEAEEKLVRTILKYVEEAAK
Turning to B30, the “apparent Kd (screen)” value came out at 0.539 nM.

B31: T97Y (designed binder)
chain: SMEEEVEKAAKEYEKKKKEAIEKHLEKLKAKDKEAAERFLKELEEAAKEYAKDEAKTMSEEEAKRRAKKYKEKVLLSELSEEEQKEIKEAEEKLVRYILKYVEEAAK
Consider B31, for which the “apparent Kd (screen)” value stood at 0.539 nM.

B32: E86Q (designed binder)
chain: SMEEEVEKAAKEYEKKKKEAIEKHLEKLKAKDKEAAERFLKELEEAAKEYAKDEAKTMSEEEAKRRAKKYKEKVLLSELSEEEQKQIKEAEEKLVRTILKYVEEAAK
Turning to B32, the “apparent Kd (screen)” value stood at 0.446 nM.

B33: E78L (designed binder)
chain: SMEEEVEKAAKEYEKKKKEAIEKHLEKLKAKDKEAAERFLKELEEAAKEYAKDEAKTMSEEEAKRRAKKYKEKVLLSLLSEEEQKEIKEAEEKLVRTILKYVEEAAK
As for B33, the “apparent Kd (screen)” value was 0.79 nM.
